± gives the uncertainty stated by the source.
Experiment: protein stability index of a GFP-peptide fusion (yeast GPS) (PSI 1-4); higher = more stable; sorted into four equal gates, so the index is relative within each strain
Procedure, shortened: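 Tiled yeast protein peptides of 17 residues were each joined downstream of GFP, on plasmids that also express Cherry. The pooled library was maintained in yeast, and mid-log cultures in leucine-free medium were sorted into four equal gates on the GFP/Cherry ratio. Plasmids from every gate were amplified by PCR and sequenced on Illumina, with barcodes linking reads to strains. The protein stability index of a peptide is its gate-number-weighted read frequency summed over the gates.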

Row | Sequence | protein stability index (doa10∆) | protein stability index (pdr5∆) | protein stability index (san1∆) | protein stability index (ubr1∆)
1 | AFKHKRALVEHIIQAKA [RPL19A] | 3.11 ± 0.13 | 3.37 ± 0.1 | 3.19 ± 0.12 | 3.19 ± 0.072
2 | SFCGFLLYYIPSLELSA [YJR042W/NUP85] | 1.65 ± 0.051 | 1.58 ± 0.065 | 1.57 ± 0.1 | 1.95 ± 0.059
3 | AIAGNSTTNSDVSLLLQ [RGR1] | 3.09 ± 0.13 | 2.19 ± 0.082 | 3.03 ± 0.056 | 3.13 ± 0.071
4 | LMQNMMNMFGGGMGGGM [SRP54] | 1.85 ± 0.16 | 2.53 ± 0.063 | 2.47 ± 0.17 | 2.27 ± 0.081
5 | ELLPHYPFVTNDDIEWM [YJR042W/NUP85] | 2.54 ± 0.13 | 2.93 ± 0.086 | 2.87 ± 0.065 | 2.96 ± 0.073
6 | LISGPRNQILVSITDAP [YMR129W/POM152] | 1.68 ± 0.092 | 1.81 ± 0.084 | 1.46 ± 0.1 | 1.68 ± 0.079
7 | AFGGSATTGGGLFGNKP [YGL172W/NUP49] | 3.26 ± 0.091 | 2.7 ± 0.26 |  | 3.16 ± 0.12
8 | LMTSHTKGDTSKATGAP [RTT102] | 3.12 ± 0.068 | 3.34 ± 0.079 | 3.27 ± 0.059 | 3.17 ± 0.06
9 | PFGAKSTKSNKTRNPLT [RPL8A] | 2.73 ± 0.072 | 2.99 ± 0.062 | 2.88 ± 0.057 | 2.8 ± 0.056
10 | RAQVLSLGDGTNYYLTT [CSL4] | 2.6 ± 0.061 | 2.66 ± 0.05 | 2.79 ± 0.048 | 3.08 ± 0.072
11 | VNQEFIFEAISLSDELN [YJL039C/NUP192] | 2.71 ± 0.071 | 2.65 ± 0.067 | 2.63 ± 0.051 | 2.75 ± 0.058
12 | KLLKQPKFDVGALMALH [RPS1A] | 1.9 ± 0.056 | 2.16 ± 0.083 | 1.9 ± 0.084 | 1.9 ± 0.069
13 | NLLKFITSNHKSSVPGS [RPN3] | 2.55 ± 0.11 | 2.77 ± 0.1 | 2.07 ± 0.067 | 2.41 ± 0.087
14 | FTKPPANETDKRPTPPS [YOR098C/NUP1] | 3.03 ± 0.043 | 3.05 ± 0.048 | 3.14 ± 0.039 | 3.15 ± 0.037
15 | TFGIRRNEKIAVHVTVR [RPL11A] | 2.17 ± 0.082 | 1.68 ± 0.076 | 2.12 ± 0.081 | 2.21 ± 0.072
16 | EKLKVNMEKEKDRIIDE [YIL149C/MLP2] | 3.37 ± 0.23 | 3.05 ± 0.2 | 3.39 ± 0.1 | 2.75 ± 0.14
17 | TLLREVVFTRLVQRCWQ [CSN12] | 1.4 ± 0.061 | 1.24 ± 0.048 | 1.39 ± 0.12 | 1.54 ± 0.055
18 | PSTGSNLQQQQQQQIQV [YGR119C/NUP57] |  | 2.55 ± 0.19 |  | 
19 | RGTLTKNLKHIDVTFTK [RPL9A] | 3.32 ± 0.06 | 3.25 ± 0.067 | 3 ± 0.077 | 2.72 ± 0.065
20 | DTRITPSKVSKIDSHVV [PRE6] | 2.76 ± 0.078 | 3.09 ± 0.064 | 2.46 ± 0.14 | 2.72 ± 0.063
21 | KNRSNRKRFHSQSKGTV [YOR098C/NUP1] | 3.21 ± 0.18 | 3.11 ± 0.18 | 2.89 ± 0.16 | 3.26 ± 0.19
22 | DEEESNDEKQKAQDVDV [RPN13] | 3.33 ± 0.12 | 3.42 ± 0.077 | 3.34 ± 0.044 | 3.32 ± 0.049
23 | HKSLIRSISWAPSIGRW [YGL100W/SEH1] | 2.81 ± 0.12 | 3.1 ± 0.11 | 2.21 ± 0.22 | 3.1 ± 0.091
24 | LIHPENFTCNRKILNFK [SWI1] | 2.17 ± 0.069 | 2.49 ± 0.064 | 2.37 ± 0.064 | 2.88 ± 0.075
25 | LLAKAVANQTSATFLRI [RPT2] | 3 ± 0.13 | 2.27 ± 0.1 | 2.3 ± 0.14 | 2.21 ± 0.073

Row | Sequence | protein stability index (doa10∆) | protein stability index (pdr5∆) | protein stability index (san1∆) | protein stability index (ubr1∆)
26 | IDEAHRIKNEQSALSQI [ISW2] | 2.6 ± 0.1 | 2.17 ± 0.091 | 1.67 ± 0.089 | 3 ± 0.069
27 | DEKDYLTNQQPKNLSTP [CSE2] | 3.04 ± 0.083 | 2.87 ± 0.081 | 3.21 ± 0.059 | 3.27 ± 0.069
28 | PLFFVDLKLLFNTEAEQ [RGR1] | 2.73 ± 0.077 | 2.83 ± 0.063 | 3.19 ± 0.085 | 3.14 ± 0.057
29 | KKLESQESLVKLFTTNE [RPN5] | 2.94 ± 0.11 | 3.12 ± 0.13 | 3.22 ± 0.081 | 2.88 ± 0.12
30 | QVKKPRKQRVKKKTKKE [SWI1] | 3.13 ± 0.24 | 3.37 ± 0.13 | 3.5 ± 0.12 | 3.38 ± 0.1
31 | NIERKQTRKEYNTSILE [SIN4] | 3.11 ± 0.13 | 2.94 ± 0.062 | 3.05 ± 0.081 | 3.23 ± 0.082
32 | ESEEAETKDIRKQIQLL [SRB4] | 2.53 ± 0.081 | 2.94 ± 0.086 | 2.5 ± 0.062 | 2.71 ± 0.075
33 | NGGKFSKSNLIHNYDSK [RGR1] | 2.4 ± 0.058 | 2.71 ± 0.06 | 3.11 ± 0.047 | 2.7 ± 0.064
34 | NNDGSYGLFLKYHKEQF [SRB8] | 2.61 ± 0.086 | 2.34 ± 0.07 | 2.12 ± 0.12 | 1.82 ± 0.069
35 | KASLLLHVLVAHKLKKS [FAS2] | 1.38 ± 0.055 | 1.27 ± 0.043 | 1.12 ± 0.088 | 1.25 ± 0.038
36 | LDELQWKSPEWIQVFGL [MED6] | 2.24 ± 0.078 | 2.41 ± 0.053 | 2.62 ± 0.071 | 2.56 ± 0.066
37 | RNNLPAKTFGASVRIFL [RPL33A] | 2.81 ± 0.052 | 2.76 ± 0.054 | 2.84 ± 0.053 | 2.68 ± 0.052
38 | IVPIFQLISAVLVSMGS [YJL039C/NUP192] |  | 2.39 ± 0.28 |  | 1.22 ± 0.091
39 | KVSYAVKKPQKSKTSTG [SNM1] | 2.85 ± 0.1 | 3.15 ± 0.13 | 2.66 ± 0.12 | 3.24 ± 0.079
40 | IGGLIPQWKRHLEEYGY [YCS4] | 2.47 ± 0.068 | 2.83 ± 0.065 | 1.9 ± 0.14 | 2.9 ± 0.057
41 | GGSSDTADKIRIHAKNF [GAL11] | 1.67 ± 0.066 | 1.86 ± 0.061 | 1.42 ± 0.072 | 1.68 ± 0.054
42 | FDSTAFNATVDETKGFD [MED2] | 3.25 ± 0.06 | 3.28 ± 0.063 | 3.15 ± 0.063 | 3.21 ± 0.046
43 | GDVGKNHITEFPSIPLP [RPC31] | 3.21 ± 0.087 | 3.23 ± 0.087 | 3.31 ± 0.079 | 3.22 ± 0.093
44 | RLNENKKIGCYMFANLE [CSN12] | 2.76 ± 0.17 | 3.14 ± 0.18 | 3.25 ± 0.084 | 3.27 ± 0.11
45 | SGRNIHLAVVCVDDNSK [SSN2] | 2.14 ± 0.087 | 1.61 ± 0.045 | 1.48 ± 0.085 | 2.96 ± 0.045
46 | LENKADPLVSLMMVEKV [RPT6] | 2.12 ± 0.095 | 2 ± 0.069 | 2.35 ± 0.067 | 2.2 ± 0.099
47 | LTLKHRQNKVQHQRIVA [RPN10] | 1.54 ± 0.071 | 1.97 ± 0.11 | 2.9 ± 0.25 | 1.84 ± 0.12
48 | LYPSFKPIYKDTRFGGR [SSN2] | 3.17 ± 0.15 | 3.16 ± 0.087 | 3.1 ± 0.047 | 3.41 ± 0.14
49 | VESVCQKLDILVAKLKK [SMC4] | 1.9 ± 0.093 | 2.19 ± 0.051 | 2.24 ± 0.087 | 2.12 ± 0.048

Reference: the supplement of paper PMC9732359
